For test [1], the target named is T1, H7CR-GFP fusion protein on transfected CHO cells (Homo sapiens (Human), UniProt Q96BF3 23-282).
T1 construct: not shown: GFP part
T1 sequence: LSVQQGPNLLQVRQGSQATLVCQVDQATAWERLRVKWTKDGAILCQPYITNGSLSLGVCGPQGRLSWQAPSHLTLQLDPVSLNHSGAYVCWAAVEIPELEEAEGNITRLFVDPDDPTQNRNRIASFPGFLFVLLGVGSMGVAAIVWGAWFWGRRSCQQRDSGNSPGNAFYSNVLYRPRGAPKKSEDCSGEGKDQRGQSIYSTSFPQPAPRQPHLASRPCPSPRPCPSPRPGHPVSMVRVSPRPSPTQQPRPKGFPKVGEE
The test is described as follows: flow cytometry, 5 µg/ml variant on H7CR-GFP transfected CHO cells, anti-hIg PE secondary antibody [row HC2-3, column LC2-1]. As for the experimental part: (§1) 5 μg/ml antibodies from thirty-six variants were incubated with H7CR-GFP fusion protein transfected CHO cells for 30 min at room temperature. Cells were then washed twice with 2 ml flow cytometry buffer, and resuspended in 100 μl flow cytometry buffer. 1 μl anti-hIg PE secondary antibody (Biolegend) was added and incubated with the cells for 15 mins Samples were then washed and resuspended in 100 μl flow cytometry buffer. Flow Cytometry data was acquired using BD Canto (BD Biosciences) in plate format and analyzed by FlowJo software.
On the technique in general: In flow cytometry, cells or beads pass a laser one at a time.

The target of test [2] is T2, human H7CR (B7-H7 counter-receptor) (human, UniProt Q96BF3 23-282).
T2 construct: Used for H7CR on CHO.hH7CR transfectants, human T cells and tonsil tissue; also called B7-H7CR; CD28H
T2 sequence: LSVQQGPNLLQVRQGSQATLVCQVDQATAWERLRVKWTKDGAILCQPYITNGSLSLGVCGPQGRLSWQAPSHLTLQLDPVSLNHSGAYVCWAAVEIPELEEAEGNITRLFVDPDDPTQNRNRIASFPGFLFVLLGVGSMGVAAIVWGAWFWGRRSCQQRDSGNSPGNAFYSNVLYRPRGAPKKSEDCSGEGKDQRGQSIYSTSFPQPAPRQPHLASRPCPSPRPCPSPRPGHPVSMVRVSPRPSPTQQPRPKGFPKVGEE
As to the kind of experiment: binding to human H7CR as endogenously expressed on the surface of a cell.

Test [3] addresses T1, H7CR-GFP fusion protein on transfected …. As to the kind of experiment: flow cytometry, 5 µg/ml variant on H7CR-GFP transfected CHO cells, anti-hIg PE secondary antibody [row HC2-3, column LC2-3]. The procedure:
as §1

Test [4] shares this target. As to the kind of experiment: flow cytometry, 5 µg/ml variant on H7CR-GFP transfected CHO cells, anti-hIg PE secondary antibody [row HC2-3, column LC2-2]. The procedure: as §1

Here are results for 3 molecules from patent US20160024210A1 (AstraZeneca / MedImmune, published 2016).

B1: 4.5 humanized variant 34 (HC2-3 / LC2-1) (antibody, V domains shown)
VH: QIQLKESGPTLVKPTQTLTLTCTVSGFSITTGGYYWNWIRQPPGKKLEWMALIYTSGRTSYNPSLKSRLTITKDTSKNQVVLTMTNMDPVDTATYYCADMADKGGWFAYWGQGTLVTVSS
VL: DIVMTQTPLSLPVTPGEPASISCRSSQSLFSSNTKRNYLDWYLQKPGQSPQLLIYHASYRASGVPDRFSGSGSGTDFTLKISRVEAEDVGVYYCQQHYETPLTFGQGTRLEIK
notes: Variable domains only; detected with anti-hIg secondary; also called VH2C / VL2A
Consider B1, for which the binding result in test [1] and in test [2] was “binds” in each case.

B2: 4.5 humanized variant 36 (HC2-3 / LC2-3) (antibody, V domains shown)
VH: QIQLKESGPTLVKPTQTLTLTCTVSGFSITTGGYYWNWIRQPPGKKLEWMALIYTSGRTSYNPSLKSRLTITKDTSKNQVVLTMTNMDPVDTATYYCADMADKGGWFAYWGQGTLVTVSS
VL: DIVMTQTPSSLPVTPGEPASISCLSSQSLFSSNTKRNYLNWYLQKPGQSPKLLIYHASTRLSGVPDRFSGSGSGTDFTLKISRVEAEDVGDYFCQQHYETPLTFGDGTRLEIK
notes: Variable domains only; detected with anti-hIg secondary; also called VH2C / VL2C
In the case of B2, the binding result in test [3] and in test [2] was “binds” in each case.

B3: 4.5 humanized variant 35 (HC2-3 / LC2-2) (antibody, V domains shown)
VH: QIQLKESGPTLVKPTQTLTLTCTVSGFSITTGGYYWNWIRQPPGKKLEWMALIYTSGRTSYNPSLKSRLTITKDTSKNQVVLTMTNMDPVDTATYYCADMADKGGWFAYWGQGTLVTVSS
VL: DIVMTQTPLSLPVTPGEPASISCRSSQSLFSSNTKRNYLNWYLQKPGQSPKLLIYHASTRLSGVPDRFSGSGSGTDFTLKISRVEAEDVGDYFCQQHYETPLTFGDGTRLEIK
notes: Variable domains only; detected with anti-hIg secondary; also called VH2C / VL2B
B3: the binding result in test [4] and in test [2] was “binds” in each case.
